These results are taken from paper PMC4748275, “SpyRing interrogation: analyzing how enzyme resilience can be achieved with phytase and distinct cyclization chemistries” (Scientific Reports, 2016).

This data set concerns O=C(Cc1cccs1)N[C@@H]1C(=O)N2C(C(=O)O)=C(/C=C/c3ccc([N+](=O)[O-])cc3[N+](=O)[O-])CS[C@H]12. Description: purified protein. The note with it: 50 mM NaH2PO4 pH 7.0, 0.1% BSA, 30 °C, 10-100 μM nitrocefin.

For orientation: Km means the concentration of substrate that gives half-maximal velocity. As usually defined, the kcat is the maximal rate divided by the concentration of active sites. For the substance “BLA (TEM-1 β-lactamase) (Escherichia coli)”, the Km worked out at 120 ± 3 µM and the kcat turned out to be 1200 ± 30 s⁻¹.
